Patent US20220106391A1 (ZOETIS SERVICES, published 2022)
Substitutions are numbered along the chain they refer to.

Columns and labels:
canine beta-NGF (cNGF) [1] = biological target: T1, canine beta-NGF (cNGF) (canine, UniProt Q29074 110-229 (pig entry)); test: SPR (Biacore)
T1 construct: also called canine NGF; can NGF
T1 chain: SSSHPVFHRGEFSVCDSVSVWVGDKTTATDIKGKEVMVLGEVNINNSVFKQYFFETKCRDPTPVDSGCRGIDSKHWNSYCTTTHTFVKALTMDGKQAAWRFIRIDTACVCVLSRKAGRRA

canine beta-NGF (cNGF) [2] = biological target: T1, canine beta-NGF (cNGF); test: cell-based or functional assay
NGF (species not stated) = test: cell-based or functional assay
feline NGF = biological target: T2, feline NGF (feline); test: SPR, Biacore 3000, feline NGF
T2 chain: T1 chain
Experimental: Affinities of selected felinized anti-NGF antibody to feline NGF were measured using SPR (Surface Plasmon Resonance), Biacore 3000. Kinetics of association and dissociation of a felinized mAb with/from feline NGF were measured at different concentrations.

canine beta-NGF (cNGF) [3] = biological target: T1, canine beta-NGF (cNGF); test: SPR (Biacore), cNGF binding
canine beta-NGF (cNGF) [4] = biological target: T1, canine beta-NGF (cNGF); test: SPR (Biacore), cNGF binding; KD column of Table 7
canine beta-NGF (cNGF) [5] = biological target: T1, canine beta-NGF (cNGF); test: cell-based or functional assay

B1: H3AQC23L5A (antibody, V domains shown)
VH: EVQLVESGGDLARPGGSLKLSCVVSGFTLTQYGINWVRQAPGKGLQWVTVIWATGATDYNSALKSRFTVSRDNAMNTVYLQMNSLRVEDTAVYYCARDGWWYATSWYFDVWGQGTLVTVSS
VL: DIVMTQTPLSLSVSPGEPASISCKASQDINHYLNWFRQKPDGTVKLLIYYTSSLHSGVPSRFSGSGSGTDFTLRISRVEADDAGVYYCQQGDHFPRTFGQGT
notes: Caninized IgG
Kd (canine beta-NGF (cNGF) [1]): 0.089 nM | IC50 [nM] (TrkA cell based assay) (canine beta-NGF (cNGF) [2]): 2.32 nM

B2: H3AQC23L2AL1 (antibody, V domains shown)
VH: B1 VH
VL: B1 VL with D28S, T51I, L54F, G91S, D92H, H93T, F94L, R96Y
IC50 [nM] (TrkA cell based assay) (canine beta-NGF (cNGF) [2]): 4.4 nM

B3: H3A02B4VL1 (antibody, V domains shown)
VH: B1 VH
VL: EIVMTQSPASLSLSQEEKVTITCRASQDISNYLNWYQQKPGQAPKLLIYYTSRLHSGVPSRFSGSGSGTDFSFTISSLEPEDVAVYYCQQGNMFPYTFGGGT
notes: Caninized IgG
Kd (canine beta-NGF (cNGF) [1]): 0.16 nM | IC50 [nM] (TrkA cell based assay) (canine beta-NGF (cNGF) [2]): 1.4 nM

B4: H3AQC23L2AL3 (antibody, V domains shown)
VH: B1 VH
VL: B1 VL with K24R, D28S, N30S, H31N, Y32N, T51I, L54F, R96Y
IC50 [nM] (TrkA cell based assay) (canine beta-NGF (cNGF) [2]): 2.57 nM

B5: mAb 1B (ZTS-082) (antibody, IgG1a, V domains shown)
VH: DVQLVESGGDLVQPGGSLRLTCVASGFTLTQYGINWVRQAPGKGLQWVAVIWATGATDYNSALKSRFTISRDNAKNTLYLQMNSLKTEDTATYYCARDGWWYATSWYFDVWGQGALVTVSS
VL: B1 VL with S14T, F36Y, R37L, S53R, A83V, Q100P
notes: Felinized IgG with feline heavy and kappa constant regions; also called ZTS-082-1B; H1-23 / KPL
IC50 (nM) (pERK-1/2, cell line expressing human TrkA) (NGF (species not stated)): 1.28 nM | Kd (feline NGF): 0.00941 nM

B6: 182m72 (antibody, V domains shown)
VH: B1 VH
VL: B1 VL with S56Q
notes: 51 except in CDR2 (TSSLHQ); 51 (CDR2 Pos. 1-6 = residues 51-56); also called Can-182-m72
Kd (canine beta-NGF (cNGF) [3]): 0.0741 nM | koff (canine beta-NGF (cNGF) [3]): 2.79e-07 s⁻¹ | kon (canine beta-NGF (cNGF) [3]): 3760 M⁻¹ s⁻¹ | Kd (canine beta-NGF (cNGF) [4]): 0.0741 nM

B7: H3A02B4L1AL1 (antibody, V domains shown)
VH: B1 VH
VL: B3 VL with R24K, S30N, N31H
notes: Caninized IgG
Kd (canine beta-NGF (cNGF) [1]): 2 nM | IC50 [nM] (TrkA cell based assay) (canine beta-NGF (cNGF) [2]): 1.56 nM

B8: H3AQC2301B12L5AL2 (antibody, V domains shown)
VH: B1 VH
VL: B1 VL with K24R, N30S, H31N, D92S, H93T, F94L
notes: Caninized IgG
Kd (canine beta-NGF (cNGF) [1]): 12.5 nM | IC50 [nM] (TrkA cell based assay) (canine beta-NGF (cNGF) [2]): 9.7 nM

B9: H733 L3-K36 (antibody, V domains shown)
VH: B5 VH with Q13K, I69M, K75R, A115T
VL: DIVMTQTPLSLPVTPGEPASISCKASQDINHYLNWYLQKPGQSPRLLIYYTSRLHSGVPSRFSGSGSGTDFTLRISSVEADDVGVYYCQQGDHFPRTFGQGT
notes: also called ZTS-082-361
IC50 (nM) (pERK-1/2, cell line expressing human TrkA) (NGF (species not stated)): 1.13 nM | Kd (feline NGF): 0.000334 nM

B10: H3AQC2301B12L6AL2 (antibody, V domains shown)
VH: B1 VH
VL: B1 VL with K24R, N30S, H31N, T51V, S52T, S56A, D92S, H93T, F94L
IC50 [nM] (TrkA cell based assay) (canine beta-NGF (cNGF) [2]): 10 nM

B11: H1-23L3K36 (antibody, V domains shown)
VH: B5 VH
VL: B9 VL
notes: also called ZTS-082-1C
IC50 (nM) (pERK-1/2, cell line expressing human TrkA) (NGF (species not stated)): 1.3 nM | Kd (feline NGF): 0.916 nM

B12: 182m75 (antibody, V domains shown)
VH: B1 VH
VL: B1 VL with S56V
notes: 51 except in CDR2 (TSSLHV); 51 (CDR2 Pos. 1-6 = residues 51-56); also called Can-182-m75
Kd (canine beta-NGF (cNGF) [3]): 2.03 nM | koff (canine beta-NGF (cNGF) [3]): 8.99e-07 s⁻¹ | kon (canine beta-NGF (cNGF) [3]): 444 M⁻¹ s⁻¹ | Kd (canine beta-NGF (cNGF) [4]): 2.03 nM

B13: H3AQC2301B12L2AL1 (antibody, V domains shown)
VH: B1 VH
VL: B1 VL with D28S, S53R, D92S, H93T, F94L
notes: Caninized IgG
Kd (canine beta-NGF (cNGF) [1]): 0.435 nM | IC50 [nM] (TrkA cell based assay) (canine beta-NGF (cNGF) [2]): 0.99 nM

B14: H3AQC2301B12L1AL1 (antibody, V domains shown)
VH: B1 VH
VL: B1 VL with D28S, S53R, D92S, H93T, F94L
notes: Caninized IgG
Kd (canine beta-NGF (cNGF) [1]): 1.07 nM | IC50 [nM] (TrkA cell based assay) (canine beta-NGF (cNGF) [2]): 0.65 nM

B15: 182m43 (antibody, V domains shown)
VH: B1 VH
VL: B1 VL with S52H, S56N
notes: 51 except in CDR2 (THSLHN); 51 as printed; also called Can-182-m43
Kd (canine beta-NGF (cNGF) [3]): 4.32 nM | koff (canine beta-NGF (cNGF) [3]): 3.32e-06 s⁻¹ | kon (canine beta-NGF (cNGF) [3]): 769 M⁻¹ s⁻¹ | Kd (canine beta-NGF (cNGF) [4]): 4.32 nM

B16: H3AQC2301B12LC (antibody, V domains shown)
VH: B1 VH
VL: B1 VL with K24R, N30S, H31N, S53R, D92S, H93T, F94L
notes: Caninized IgG, light chain QC2301B12VK
Kd (canine beta-NGF (cNGF) [1]): 1.13 nM | IC50 [nM] (TrkA cell based assay) (canine beta-NGF (cNGF) [2]): 0.8 nM

B17: H3AQC23L6A (antibody, V domains shown)
VH: B1 VH
VL: B1 VL with T51V, S52T, S56A
IC50 [nM] (TrkA cell based assay) (canine beta-NGF (cNGF) [2]): 16.9 nM

B18: 182m70 (antibody, V domains shown)
VH: B1 VH
VL: B1 VL with S56G
notes: 51 except in CDR2 (TSSLHG); 51 (CDR2 Pos. 1-6 = residues 51-56); also called Can-182-m70
Kd (canine beta-NGF (cNGF) [3]): 4.9 nM | koff (canine beta-NGF (cNGF) [3]): 9.46e-06 s⁻¹ | kon (canine beta-NGF (cNGF) [3]): 1930 M⁻¹ s⁻¹ | Kd (canine beta-NGF (cNGF) [4]): 4.9 nM

B19: 182m114 (antibody, V domains shown)
VH: B1 VH
VL: B1 VL with S52A, S56Q
notes: 51 except in CDR2 (TASLHQ); 51 (CDR2 Pos. 1-6 = residues 51-56); also called Can-182-m114
Kd (canine beta-NGF (cNGF) [3]): 0.707 nM | koff (canine beta-NGF (cNGF) [3]): 1.27e-06 s⁻¹ | kon (canine beta-NGF (cNGF) [3]): 1790 M⁻¹ s⁻¹ | Kd (canine beta-NGF (cNGF) [4]): 0.707 nM

B20: 15H02-02E01 (antibody, IgG1, V domains shown)
VH: EVQLEQSGPGLVAPSQSLSITCTVSGFSLTGYGVNWVRQPPGKGLEWLGMIWGDGSTDYNSALKSRLSISKDNSKSQVFLKMNSLQTDDTARYYCARDGYYYGTTWYFDVWGAGTTVTVSS
VL: DIVLTQSTSSLSASLGDRVTISCRASQDISNYLNWYQQKPDGTIKLLIYYTSRLHSGVPSRFSGSGSGTDYSLTISNLEQEDIATYFCQQGSTLPRTFGGGT
Average Max % Inhib. (pERK 1/2, CHO cells expressing human TrkA) (canine beta-NGF (cNGF) [5]): 88.2% | IC50 (pERK 1/2, CHO cells expressing human TrkA) (canine beta-NGF (cNGF) [5]): 18.8 nM

B21: 02B04-02A08 (antibody, V domains shown)
VH: EVKLEESGPGLVAPSQSLSITCTVSGFSLTGYGVNWVRQPPGKGLEWLGMIWGDGSTDYNSALKSRLNISKDNSKSQVFLKMDSLQTDDTARYYCARGGYDYDVPFFDYWGQGTTLTVSS
VL: B20 VL with L4M, S7T, I44V, S92N, T93M, L94F, R96Y, F98L
Average Max % Inhib. (pERK 1/2, CHO cells expressing human TrkA) (canine beta-NGF (cNGF) [5]): 82.2% | IC50 (pERK 1/2, CHO cells expressing human TrkA) (canine beta-NGF (cNGF) [5]): 4 nM

B22: 20D11-02E10 (antibody, IgG1, V domains shown)
VH: B20 VH with Q6E
VL: DIVITQTPLSLPVSLGDQASISCRSSQSIVHINRHTYLGWYLQKPGQSLKLLIYGVSNRFSGVPDRFSGSGSGTDFTLKISRVEAEDMGVYYCFQGTHVPFTFGSGT
Average Max % Inhib. (pERK 1/2, CHO cells expressing human TrkA) (canine beta-NGF (cNGF) [5]): 78.1% | IC50 (pERK 1/2, CHO cells expressing human TrkA) (canine beta-NGF (cNGF) [5]): 5.5 nM

B23: 30E01-02A11 (antibody, IgG1, V domains shown)
VH: B20 VH with E1Q, Q3K, Q6E
VL: B20 VL with S7T
Average Max % Inhib. (pERK 1/2, CHO cells expressing human TrkA) (canine beta-NGF (cNGF) [5]): 72.4% | IC50 (pERK 1/2, CHO cells expressing human TrkA) (canine beta-NGF (cNGF) [5]): 9.8 nM

B24: 01B12 Chimera (antibody, V domains shown)
VH: QVQLKESGPGLVAPSQSLSITCTVSGFSLTGYGVNWVRQPPGKGLEWLGMIWGDGSTDYNSALKSRLSISKDNSKSQVFLKMNSLQTDDTARYYCARDGYYYGTTWYFDVWGAGTTVTV
VL: B20 VL with V3Q, L4M, S7T
notes: Mouse variable domains on canine IgG constant regions; 184 and 160; also called Chim-01B12
Kd (canine beta-NGF (cNGF) [1]): 1.18 nM | IC50 [nM] (TrkA cell based assay) (canine beta-NGF (cNGF) [2]): 1.02 nM

B25: 26C08-02F06 (antibody, IgG1, V domains shown)
VH: B21 VH with N68S, D83N, P105S
VL: B20 VL with S7T, I44V, L54F, Q80H, S92N, R96Y
Average Max % Inhib. (pERK 1/2, CHO cells expressing human TrkA) (canine beta-NGF (cNGF) [5]): 57.4% | IC50 (pERK 1/2, CHO cells expressing human TrkA) (canine beta-NGF (cNGF) [5]): 7.1 nM

B26: 01B12-02B08 (antibody, IgG1, V domains shown)
VH: B20 VH with Q3K, E5Q, Q6E
VL: B20 VL with L4M
Average Max % Inhib. (pERK 1/2, CHO cells expressing human TrkA) (canine beta-NGF (cNGF) [5]): 87.1% | IC50 (pERK 1/2, CHO cells expressing human TrkA) (canine beta-NGF (cNGF) [5]): 4.7 nM

B27: 31F05-02B03 (antibody, IgG1, V domains shown)
VH: B20 VH with E5Q
VL: B20 VL with V3Q, L4M, S7T
Average Max % Inhib. (pERK 1/2, CHO cells expressing human TrkA) (canine beta-NGF (cNGF) [5]): 86.2% | IC50 (pERK 1/2, CHO cells expressing human TrkA) (canine beta-NGF (cNGF) [5]): 4.1 nM

B28: 16G01-02F03 (antibody, IgG2a, V domains shown)
VH: EVQLQESGAELVKPGASVKLSCKASGYTFTNYWMHWVKQRPGQGLEWIGHIDPSDGETHYNQKFKDKATLTVDKSSSTAYMQLTGLTSEDSAVYYCARFLPDYWGQGTSVTVSS
VL: DIVLTQTPAIMSASPGEKVTMTCRASSSVSSIYLHWYQQKPGSSPKLWIYSTSNLASGVPARFSGSGSGTSYSLTVSSVEAEDAATYYCQLYDNSPLTFGAGT
Average Max % Inhib. (pERK 1/2, CHO cells expressing human TrkA) (canine beta-NGF (cNGF) [5]): 27.7%
